This is an account of results in patent US20250154287A1 (Pfizer, published 2025).

Experiment [1] deals with T1, biotinylated human MIGIS-α peptide (human, biotinylated).
T1 peptide: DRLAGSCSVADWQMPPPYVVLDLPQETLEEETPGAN
Nature of the experiment: SPR (Biacore T200, 37 C), biotinylated peptide captured, OAA as analyte, 1:1 fit.

The target of experiment [2] is T2, biotinylated cyno MIGIS-α peptide (cynomolgus monkey).
T2 construct: domain: MIGIS-α
Described as above.

Experiment [3] has as its target T3, human membrane IgA overexpressed on Ramos cells (human).
T3 construct: its MIGIS-α segment is the short form; also called IgA^+ Ramos; human IgA^+ RAMOS cells
Nature of the experiment: flow cytometry on IgA+ Ramos cells.

In experiment [4] the target is T4, parental (IgA^-) Ramos cell line, which expresses only cell surface IgM (UniProt P01871 1-474).
T4 construct: whole, on cells; Negative control cells without membrane IgA; also called mIgA negative Ramos cells; parental Ramos
T4 sequence (P01871 whole entry): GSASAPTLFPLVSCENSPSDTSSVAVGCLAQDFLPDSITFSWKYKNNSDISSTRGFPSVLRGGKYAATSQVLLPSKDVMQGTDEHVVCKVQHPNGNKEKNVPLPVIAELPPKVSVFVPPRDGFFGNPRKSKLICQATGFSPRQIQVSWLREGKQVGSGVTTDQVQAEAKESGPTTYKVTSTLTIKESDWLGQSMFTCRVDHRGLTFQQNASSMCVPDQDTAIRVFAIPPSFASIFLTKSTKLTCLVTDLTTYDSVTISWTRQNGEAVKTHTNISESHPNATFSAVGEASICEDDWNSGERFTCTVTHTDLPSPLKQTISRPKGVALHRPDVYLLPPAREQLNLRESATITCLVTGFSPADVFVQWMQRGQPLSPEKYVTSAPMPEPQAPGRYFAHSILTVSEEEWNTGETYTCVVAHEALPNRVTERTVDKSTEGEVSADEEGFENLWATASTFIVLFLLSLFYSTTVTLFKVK
The experiment is described as follows: flow cytometry on parental Ramos cells.

Numbering of substitutions follows the chain as printed.

T3 sequence (heavy, as listed by the source): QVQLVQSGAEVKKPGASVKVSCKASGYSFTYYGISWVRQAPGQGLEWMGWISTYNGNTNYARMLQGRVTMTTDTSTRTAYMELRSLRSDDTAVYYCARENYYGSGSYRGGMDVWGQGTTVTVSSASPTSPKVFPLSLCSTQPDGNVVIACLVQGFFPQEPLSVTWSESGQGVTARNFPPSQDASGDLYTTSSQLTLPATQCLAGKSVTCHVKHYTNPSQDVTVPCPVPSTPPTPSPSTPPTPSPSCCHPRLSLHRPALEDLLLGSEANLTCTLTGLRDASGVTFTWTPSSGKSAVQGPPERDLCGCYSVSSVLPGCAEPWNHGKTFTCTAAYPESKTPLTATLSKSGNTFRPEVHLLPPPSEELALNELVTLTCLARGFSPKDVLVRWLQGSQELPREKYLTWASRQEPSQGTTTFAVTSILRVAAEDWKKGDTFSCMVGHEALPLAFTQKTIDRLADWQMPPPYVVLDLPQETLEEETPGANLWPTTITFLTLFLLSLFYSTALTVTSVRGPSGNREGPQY

B1: GBT-IgA-0070 (H05 in one arm antibody format) (antibody)
heavy: not shown
chain: EPKSSDKTHTCPPCPAPEAAGAPSVFLFPPKPKDTLMISRTPEVTCVVVDVSHEDPEVKFNWYVDGVEVHNAKTKPREEQYNSTYRVVSVLTVLHQDWLNGKEYKCKVSNKALPAPIEKTISKAKGQPREPQVYTLPPCREEMTKNQVSLSCAVKGFYPSDIAVEWESNGQPENNYKTTPPVLDSDGSFFLVSKLTVDKSRWQQGNVFSCSVMHEALHNRYTQKSLSLSPGK
light: not shown
notes: also called H05 OAA
In experiment [1], B1 came in with a Kd of 210 nM, a koff of 0.0222 s⁻¹ and a kon of 105000 M⁻¹ s⁻¹. In experiment [2], this molecule registered a Kd of 56 nM, a koff of 0.0154 s⁻¹ and a kon of 275000 M⁻¹ s⁻¹.

B2: GBT-IgA-1572 (antibody)
heavy: not shown
chain: B1 chain
light: not shown
notes: One-armed antibody
In experiment [1], B2 displayed a Kd of 3.47 nM, an off-rate (koff) of 0.0028 s⁻¹ and a kon of 818000 M⁻¹ s⁻¹. For the same molecule, in experiment [2], binding was put at a Kd of 3.4 nM, the koff is 0.0018 s⁻¹ and the kon came out at 548000 M⁻¹ s⁻¹.

B3: GBT-IgA-1090 (antibody)
heavy: not shown
chain: B1 chain
light: not shown
notes: One-armed antibody
As for B3, in experiment [1], binding was characterised by a dissociation constant (Kd) of 0.724 nM, the koff is 0.0015 s⁻¹ and the kon came out at 2.06e+06 M⁻¹ s⁻¹. In experiment [2], this molecule showed a dissociation constant (Kd) of 1.05 nM, a koff of 0.0013 s⁻¹ and a kon of 1.27e+06 M⁻¹ s⁻¹.

B4: GBT-IgA-1091 (antibody)
heavy: not shown
chain: B1 chain
light: not shown
notes: One-armed antibody; also called one armed antibody version of GBT-IgA-1602; OAA of GBT-IgA-1179
In experiment [1], B4 returned a Kd of 2.13 nM, a koff of 0.0028 s⁻¹ and a kon of 1.32e+06 M⁻¹ s⁻¹. For the same molecule, in experiment [2], the Kd turned out to be 2.46 nM, the koff stood at 0.0023 s⁻¹ and the kon was found to be 953000 M⁻¹ s⁻¹.

B5: GBT-IgA-0035 (ET17) (antibody, V domains shown)
VH: EVQLLESGGGLVQPGGSLRLSCAASGFTFSRYAMSWVRQVPGKGLEWVSAITGSGSGTYYADPVKGRFTISRDNSKNTLYLQMNSLRAEDTAVYHCAKERSGSSSDYWGQGTLVTVSS
VL: EIVLTQSPATLSLSPGERATLSCRASQTVGSHLAWYQQKPGQAPRLLIYEASNRATGIPPRFSGSGSGTDFTLTISSLEPEDFAVYYCQQRNNWPITFGQGTRLESKR
notes: Heavy constant region of the tested format is not tied to this name; also called E17
Regarding B5, in experiment [3], the midpoint of the response, the EC50, lay at 11.9 nM and the “mean fluorescence intensity at the top saturating concentration tested” value (“mean fluorescence intensity” for short) worked out at 23600 MFI. In experiment [4], the binding result is on record as “no binding”.

B6: GBT-IgA-0020 (15E7) (antibody, V domains shown)
VH: B5 VH with R31S
VL: B5 VL with G30S, H32Y
Consider B6, for which, in experiment [3], the EC50 stood at 64.5 nM and the “mean fluorescence intensity” value came out at 23100 MFI. Also, the binding result in experiment [4] is “no binding”.

B7: GBT-IgA-0036 (ET18) (antibody, V domains shown)
VH: B5 VH
VL: B5 VL with G30S
notes: Heavy constant region of the tested format is not tied to this name; also called E18
Consider B7, for which, in experiment [3], the EC50 worked out at 10.8 nM and the “mean fluorescence intensity” value was 26100 MFI. Moreover, in experiment [4], the binding result is “no binding”.

B8: GBT-IgA-0034 (ET10) (antibody, V domains shown)
VH: B5 VH with R31S, A50S, S56G
VL: B5 VL with G30R
notes: Heavy constant region of the tested format is not tied to this name; also called E10
As to B8, in experiment [3], the 50% effective concentration (EC50) came to 27 nM and the “mean fluorescence intensity” value was 22600 MFI. Also, the binding result in experiment [4] is listed as “no binding”.
